This passage reports Kd results from PMC10041117.

A word on the Kd: it is the concentration at which binding is half-saturated. Low values mean a tighter complex, high ones a looser complex.

Assay [1] deals with myosin S2Δ (fragment of the S2 region of myosin consisting of its first 128 residues). The assay can be described thus: MST; C0C2 constructs binding to myosin S2Δ; as in refs 15 and 25.
The target of assay [2] is isolated bovine native thin filaments (NTFs) (bovine), Q3ZC07. The assay can be described thus: co-sedimentation; C0C2 constructs cosedimented with isolated bovine native thin filaments (NTFs); as in ref. 15.

Sequence of myosin S2Δ (fragment of the S2 region of myosin consisting of its first 128 residues) (P12883 838-965, stated change not applied): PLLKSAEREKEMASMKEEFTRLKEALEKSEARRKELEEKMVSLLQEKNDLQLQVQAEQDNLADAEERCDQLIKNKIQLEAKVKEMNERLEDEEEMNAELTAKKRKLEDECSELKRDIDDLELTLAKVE

B1: mTFP-C0C2 (C0C2 of cMyBP-C conjugated to mTFP at its N terminus) (domain or fragment)
chain: MPEPGKRPVSAFTKKPRSVEVTAGSAAVFEAETERSGLKVQWQRDGSDIAANDKYGLAAEGKRHTLTVRDVGPDDQGSYAVIAGSSKVKFDLKVTEPAPPEKAESAVAPTSMEAPETPKEVPALATQLEGNVSSPEGSVSVTQDGSVAGSQGAPDDPIGLFLMRPQDGEVTVGGSIVFSARVAGASLLKPPVVKWFKGKWVDLSSKVGQHLQLHDSYDRASKVYLFELHITDAQATSAGGYRCEVSTKDKFDSCNFNLTVHEAIGSGDLDLRSAFRRTSLAGTGRRTSDSHEDAGTLDFSSLLKKSSFRRDSKLEAPAEEDVWEILRQAPPSEYERIAFQHGVTDLRGMLKRLKGMKHDEKKSTAFQKKLEPAYQVNKGHKIRLTVELADPDAEVKWLKNGQEIQMSGRYIFESIGAKRTLTISQCSLADDAAYQCVVGGEKCSTELFVKEP
modifications: not checked
Consider B1, for which the Kd in assay [1] was determined as 35 µM; in assay [2], 18 µM.

B2: N-terminal fragment of cMyBP-C containing domains C0 through C2 (C0C2), wild type (domain or fragment)
chain: MPEPGKRPVSAFTKKPRSVEVTAGSAAVFEAETERSGLKVQWQRDGSDIAANDKYGLAAEGKRHTLTVRDVGPDDQGSYAVIAGSSKVKFDLKVTEPAPPEKAESAVAPTSMEAPETPKEVPALATQLEGNVSSPEGSVSVTQDGSVAGSQGAPDDPIGLFLMRPQDGEVTVGGSIVFSARVAGASLLKPPVVKWFKGKWVDLSSKVGQHLQLHDSYDRASKVYLFELHITDAQATSAGGYRCEVSTKDKFDSCNFNLTVHEAIGSGDLDLRSAFRRTSLAGTGRRTSDSHEDAGTLDFSSLLKKSSFRRDSKLEAPAEEDVWEILRQAPPSEYERIAFQHGVTDLRGMLKRLKGMKHDEKKSTAFQKKLEPAYQVNKGHKIRLTVELADPDAEVKWLKNGQEIQMSGRYIFESIGAKRTLTISQCSLADDAAYQCVVGGEKCSTELFVKEP
modifications: not checked
Consider B2, for which the Kd in assay [1] stood at 20 µM; in assay [2], 42 µM.
